PMC2807882, “Conservation of DNA-binding specificity and oligomerisation properties within the p53 family”

What was measured:
Assay in all cases: anisotropy competition; 25 mM NaPi, 225 mM NaCl, 10% v/v glycerol, 5 mM DTT, 0.2 mg/mL BSA, 22°C; 20 nM labelled DNA; pH not stated for the binding assay
Conditions in all cases: protein: recombinant; tags: N-terminal 6xHis-lipoyl-TEV tag, cleaved; chain copies: 4
[1] = target: T1, ΔNp73β (Homo sapiens, UniProt O15350-9 1-450)
T1 sequence: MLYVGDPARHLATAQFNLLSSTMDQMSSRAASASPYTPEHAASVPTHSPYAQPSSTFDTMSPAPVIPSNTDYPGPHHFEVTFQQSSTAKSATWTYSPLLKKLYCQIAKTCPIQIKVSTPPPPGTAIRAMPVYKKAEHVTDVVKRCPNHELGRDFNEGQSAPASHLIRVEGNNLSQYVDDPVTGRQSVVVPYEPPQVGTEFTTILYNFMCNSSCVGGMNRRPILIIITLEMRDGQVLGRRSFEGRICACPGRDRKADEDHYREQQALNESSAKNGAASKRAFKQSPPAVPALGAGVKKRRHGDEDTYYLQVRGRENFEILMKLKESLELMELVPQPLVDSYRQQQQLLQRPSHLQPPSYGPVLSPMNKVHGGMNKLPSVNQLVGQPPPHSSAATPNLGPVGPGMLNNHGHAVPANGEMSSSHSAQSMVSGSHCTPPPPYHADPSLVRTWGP

[2] = target: Hsp53 (Homo sapiens, UniProt P04637 1-393)
[3] = target: T2, ΔNp63α (Homo sapiens, UniProt Q9H3D4-2 1-586)
T2 sequence: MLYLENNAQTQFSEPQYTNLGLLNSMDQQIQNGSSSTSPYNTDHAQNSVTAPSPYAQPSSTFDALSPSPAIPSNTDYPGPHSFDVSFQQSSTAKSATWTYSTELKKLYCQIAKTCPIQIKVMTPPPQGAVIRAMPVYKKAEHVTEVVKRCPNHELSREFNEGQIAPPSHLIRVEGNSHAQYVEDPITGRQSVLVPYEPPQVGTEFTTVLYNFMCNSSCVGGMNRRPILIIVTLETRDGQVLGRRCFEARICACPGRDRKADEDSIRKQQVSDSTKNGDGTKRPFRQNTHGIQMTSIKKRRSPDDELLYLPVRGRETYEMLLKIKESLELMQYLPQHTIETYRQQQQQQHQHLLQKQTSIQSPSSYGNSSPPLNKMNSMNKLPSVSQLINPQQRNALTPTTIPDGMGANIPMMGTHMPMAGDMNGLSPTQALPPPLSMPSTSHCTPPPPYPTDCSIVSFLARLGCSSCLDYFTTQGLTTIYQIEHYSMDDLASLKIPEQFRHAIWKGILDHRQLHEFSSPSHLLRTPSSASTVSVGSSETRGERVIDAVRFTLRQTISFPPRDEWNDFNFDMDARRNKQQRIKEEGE

[4] = target: T3, p73CT (Homo sapiens, UniProt O15350 104-383)
T3 sequence: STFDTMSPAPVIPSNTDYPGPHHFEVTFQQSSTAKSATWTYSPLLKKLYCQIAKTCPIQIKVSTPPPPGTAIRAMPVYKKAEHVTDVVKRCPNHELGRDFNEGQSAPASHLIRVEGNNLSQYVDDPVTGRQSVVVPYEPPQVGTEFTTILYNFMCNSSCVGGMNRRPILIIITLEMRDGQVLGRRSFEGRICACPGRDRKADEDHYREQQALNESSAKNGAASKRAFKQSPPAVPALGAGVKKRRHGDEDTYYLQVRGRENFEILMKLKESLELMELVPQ

[5] = target: T4, Dmp53 (Drosophila melanogaster, UniProt Q9N6D8 1-385)
T4 sequence: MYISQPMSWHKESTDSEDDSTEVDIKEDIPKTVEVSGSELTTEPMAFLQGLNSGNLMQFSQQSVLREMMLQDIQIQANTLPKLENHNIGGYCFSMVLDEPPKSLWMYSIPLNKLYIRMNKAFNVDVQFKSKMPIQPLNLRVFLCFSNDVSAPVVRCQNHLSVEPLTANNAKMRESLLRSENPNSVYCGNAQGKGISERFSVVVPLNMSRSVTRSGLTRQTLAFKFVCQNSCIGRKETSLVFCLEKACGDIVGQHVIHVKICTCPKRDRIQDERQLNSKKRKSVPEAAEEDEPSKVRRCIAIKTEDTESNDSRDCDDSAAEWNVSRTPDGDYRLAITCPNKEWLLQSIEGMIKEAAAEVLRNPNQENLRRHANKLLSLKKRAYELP

[6] = target: T5, Drp53 (Danio rerio, UniProt P79734 1-373)
T5 sequence: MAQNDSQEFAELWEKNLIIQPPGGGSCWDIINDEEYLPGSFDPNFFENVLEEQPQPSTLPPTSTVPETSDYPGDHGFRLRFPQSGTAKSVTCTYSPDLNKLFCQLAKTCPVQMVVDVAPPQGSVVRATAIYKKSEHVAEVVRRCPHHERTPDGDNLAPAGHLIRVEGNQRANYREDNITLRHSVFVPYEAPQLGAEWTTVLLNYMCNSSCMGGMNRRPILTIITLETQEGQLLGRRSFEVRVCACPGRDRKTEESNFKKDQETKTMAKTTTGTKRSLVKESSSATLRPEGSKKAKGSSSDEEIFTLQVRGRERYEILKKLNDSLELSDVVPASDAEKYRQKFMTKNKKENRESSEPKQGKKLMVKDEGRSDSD

Sequence of Hsp53 (P04637 whole entry): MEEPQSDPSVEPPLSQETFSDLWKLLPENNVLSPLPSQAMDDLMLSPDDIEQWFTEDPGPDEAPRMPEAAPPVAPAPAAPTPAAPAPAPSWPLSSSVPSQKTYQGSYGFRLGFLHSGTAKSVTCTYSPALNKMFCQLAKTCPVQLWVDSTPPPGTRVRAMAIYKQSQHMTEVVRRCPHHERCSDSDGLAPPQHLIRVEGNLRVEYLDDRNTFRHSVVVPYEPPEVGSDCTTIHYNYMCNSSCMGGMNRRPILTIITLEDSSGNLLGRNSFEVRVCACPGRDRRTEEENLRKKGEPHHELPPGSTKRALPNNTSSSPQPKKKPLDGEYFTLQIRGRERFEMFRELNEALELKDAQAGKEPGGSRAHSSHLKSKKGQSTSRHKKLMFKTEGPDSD

B1: Ref competitor (dsDNA)
DNA 1: CGCGGACATGTCCGGACATGTCCCGC
DNA 2: GCGGGACATGTCCGGACATGTCCGCG
With B1 the Kd [1] was -7.62 log10(M), the Kd [2] was -7.12 log10(M) and the Kd [3] was -7.21 log10(M). The Kd [4] was -6.83 log10(M), the Kd [5] was -7.56 log10(M) and the Kd [6] was -7.42 log10(M).
